Data from paper PMC8035206.

Biological target: N-mEGFP full length (nucleocapsid) (SARS-CoV-2, UniProt P0DTC9 1-419)
Assay: EMSA; 200 nM RNA; N-mEGFP titrated
Conditions: protein: recombinant; tags: C-terminal mEGFP; pET28a(+), Ni-purified (His tag implied); chain copies: 2

B1: 55-nt vRNA (5' UTR segment) (ssRNA)
RNA: AUUAAAGGUUUAUACCUUCCCAGGUAACAAACCAACCAACUUUCGAUCUCUUGUA
Q: Does B1 bind?
A: Result: binds
